Data: publication PMC11059514 (Molecular Metabolism, 2024)

Biological target: T1, PPARα bait (pCLG-PPARα), full-length PPARα fused to a mutant leptin receptor (UniProt Q07869 1-468)
T1 sequence: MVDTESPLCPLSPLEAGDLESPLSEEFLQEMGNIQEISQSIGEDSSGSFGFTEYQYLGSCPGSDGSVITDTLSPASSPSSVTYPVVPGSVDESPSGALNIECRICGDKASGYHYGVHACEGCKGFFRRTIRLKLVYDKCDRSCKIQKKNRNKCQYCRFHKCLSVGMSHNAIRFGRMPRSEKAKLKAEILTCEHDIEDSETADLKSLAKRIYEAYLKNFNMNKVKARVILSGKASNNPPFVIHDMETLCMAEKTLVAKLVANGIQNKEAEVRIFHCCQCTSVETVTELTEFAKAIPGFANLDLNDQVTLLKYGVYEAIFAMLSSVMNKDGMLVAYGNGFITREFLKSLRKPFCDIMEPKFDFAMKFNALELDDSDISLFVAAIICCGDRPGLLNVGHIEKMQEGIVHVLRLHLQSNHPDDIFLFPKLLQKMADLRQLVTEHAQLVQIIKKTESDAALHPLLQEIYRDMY
Experiment: two-hybrid

B1: ERRα prey (pMG1-ERRα), full-size ERRα ORF coupled to gp130 (natural protein)
chain: MSSQVVGIEPLYIKAEPASPDSPKGSSETETEPPVALAPGPAPTRCLPGHKEEEDGEGAGPGEQGGGKLVLSSLPKRLCLVCGDVASGYHYGVASCEACKAFFKRTIQGSIEYSCPASNECEITKRRRKACQACRFTKCLRVGMLKEGVRLDRVRGGRQKYKRRPEVDPLPFPGPFPAGPLAVAGGPRKTAAPVNALVSHLLVVEPEKLYAMPDPAGPDGHLPAVATLCDLFDREIVVTISWAKSIPGFSSLSLSDQMSVLQSVWMEVLVLGVAQRSLPLQDELAFAEDLVLDEEGARAAGLGELGAALLQLVRRLQALRLEREEYVLLKALALANSDSVHIEDAEAVEQLREALHEALLEYEAGRAGPGGGAERRRAGRLLLTLPLLRQTAGKVLAHFYGVKLEGKVPMHKLFLEMLEAMMD
In the case of B1, the “fold increase of the MAPPIT signal on serum starvation” value is reported as ~3 fold.
